# Reference: PMC4456216
# Key:
# Assay in all cases: ITC
# [1] = molecular target: BMAL1 TAD S605N L606Y (mouse)
# [2] = molecular target: BMAL1 TAD V602A I603F (mouse)
# [3] = molecular target: BMAL1 transactivation domain (TAD), residues 579-626 (mouse)
# Chain of mouse CBP KIX domain (P45481 586-665): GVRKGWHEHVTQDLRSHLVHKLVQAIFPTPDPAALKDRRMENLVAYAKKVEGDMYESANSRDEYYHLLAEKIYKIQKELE
substance,measurement,setting,value
mouse CBP KIX domain (from UniProt P45481 586-665) (domain or fragment),stoichiometry N,[1],1.06
same,stoichiometry N,[2],0.82
same,stoichiometry N,[3],0.74
